Paper doi:10.1101/2021.09.13.460076

Target: ADDomer-SpyTag (ADD-ST) particle (human adenovirus type 3)
Test: covalent adduct on SDS-PAGE

SpyCatcher (SC) (designed binder) showed a stoichiometry N (copies per particle) of 60.
